This is an account of results in patent publication US20240131207A1, “NUCLIDE-LABELED INHIBITORY PEPTIDE, AND PREPARATION METHOD THEREFOR AND USE THEREOF” (SUZHOU UNIVERSITY, priority 2022, published 2024).

No end group written: not given here. *: point of attachment. DOTA = O=C(O)CN1CCN(CC(=O)O)CCN(CC(=O)*)CCN(CC(=O)O)CC1

One may read the viability as a read-out of living cells in per cent, often relative to untreated cells. What is called tissue uptake is the share of the injected amount in each gram of the tissue.

In series [1] the test system is B16F10 cells. The experiment in a line: Growth inhibitory effect of 177Lu-AP1 on B16F10 cells (CCK8). The class given is cell-based, mice. The conditions noted are these: radioactive dose 600 μCi/mL, incubated 24 hours, then 24 hours in normal medium.
Method: • (1) The B16F10 cells of mice in the logarithmic growth phase were taken and digested by using pancreatin, and the cell concentration was adjusted to 4×10^4 cells/mL; the cells were plated in a 96-well plate at a volume of 100 μL per well, the cell concentration was 4×10^3 cells per well, and the cells were incubated overnight in an incubator at 37° C./5% CO2; • (2) the medium was replaced for each group of cells, 100 μL of culture solution with a specified dosage was added, and ^177LuCl3 and ^177Lu-AP1 with the same dosage concentration were added into two 96-well plates, wherein dosage concentrations were 0, 10, 100, 200, 300, 400, 500 and 600 μCi/mL; after 24 h, the normal culture medium was used to continue culturing; • (3) a culture medium with 10 μL of CCK8 solution (10%) was added at 24 h and 48 h after the normal culture medium was used, and the culture was continued in the incubator for 1 h; • (4) after 1 h, the absorbance at 450 nm of each well was measured using a microplate reader. The relative survival rate of the cells was calculated according to the measured OD value. Cell viability=(material added group−blank group)/(control group−blank group)×100%.
The test system of series [2] is B16F10 cells. The conditions noted are these: 0-100 μg/mL.
Method: (§1) • (1) The skin melanoma B16F10 cells of mice in the logarithmic growth phase were taken and digested by using 0.25% pancreatin, and the cell concentration was adjusted to 6×10^4/mL; the cells were plated in a 96-well plate at a volume of 100 μL per well, the cell concentration was 6×10^3 cells per well, and the cells were incubated overnight in an incubator at 37° C./5% CO2; • (2) the medium was replaced for each group of cells, and 100 μL of a culture solution with a specified concentration was added, wherein the concentration of each dose was 0, 0.5, 1, 5, 10, 20, 50 and 100 μg/mL; after 24 h, a DMEM medium (containing 10% of North American fetal bovine serum and 1% of double antibody) was used, and the culture was continued; • (3) 10 μL of CCK8 solution (10%) was added at 0 h and 24 h after the normal culture medium was used, and the culture was continued in the incubator for 1 h; • (4) after 1 h, the absorbance at 450 nm of each well was measured using a microplate reader. The relative survival rate of the cells was calculated according to the measured OD value. Cell viability=(material added group−blank group)/(control group−blank group)×100%.
Series [3] can be described thus: in vitro. The settings on record: mouse, B16F10 cells.
Method: as §1
Series [4] has as its system B16F10 cells.
Method: Safety of radiolabeled ^68Ga-AP1 imaging probe • (1) The B16F10 cells of mice in the logarithmic growth phase were taken and digested by using 0.25% pancreatin, and the cell concentration was adjusted to 6×10^4 cells/mL; the cells were plated in a 96-well plate at a volume of 100 μL per well, the cell concentration was 6×10^3 cells per well, and the cells were incubated overnight in an incubator at 37° C./5% CO2; • (2) the medium was replaced for each group of cells, 100 μL of a culture solution with a specified concentration was added, and the radioactive doses were taken as 0, 1, 2.5, 10, 25, 50, 100, and 200 μCi/mL; after 12 h, the normal culture medium was used and 10 μL of CCK8 solution (10%) was added, and the culture was continued in an incubator for 1 h; • (3) after 1 h, the absorbance at 450 nm of each well was measured using a microplate reader. The relative survival rate of the cells was calculated according to the measured OD value. Cell viability=(material added group−blank group)/(control group−blank group)×100%.
Series [5] can be described thus: Stability analysis of 68Ga/177Lu labeled product in PBS by HPLC. The series is classed as physicochemical. The conditions noted are these: within 24 hours, stability data determined with 177Lu. As to the method: • (1) The HPLC mobile phases were water and acetonitrile (each containing 0.1% TFA), and the gradient was set from 20% to 50% acetonitrile concentration over a period of 30 minutes. • (2) The injection analysis of ^68Ga/^177Lu-AP1 in PBS at different time points (0, 1.5, 3.5, and 24 h) under the same condition is shown in FIG. 2 (identification and purification of ^68Ga/^177Lu-labeled AP1 product) (The radiation peak of the product is mainly the peak of the polypeptide. Since the half-life of ^68Ga is only 68 minutes, and the amount of radiation injected is very small, the stability data is determined by ^177Lu (6.71 days) with a longer half-life).

The conditions of series [6]: B16F10 tumor-bearing mouse, tail vein injection.
Method: (§2) • (1) The ^68Ga-AP1 imaging probe was used for screening a high expression group and a low expression group of tumor ASF1a, and 20 μCi of ^68Ga-AP1 was injected into the tail vein of each mouse. After 0.5, 1.5, 3.5 and 5.5 h after injection, each important organ was dissected and separated. Each organ weight was measured and calculated as % ID/g=organ radioactivity count/(organ weight×source count)×100% for 3 mice per time point. • (2) Mice were sacrificed at 10 min, 20 min, 30 min, 1.5 h, 3.5 h, 5.5 h respectively after tail vein injection of ^68Ga-AP1, the radioactivity of the organs in the blood of the mice was measured, n=3 was measured at each time point, and the mean value of each time point was taken, and an intravascular two-compartment model was selected to fit hemodynamic parameters using PKSover software.
The conditions of series [7]: mice, tail vein injection, two-compartment model.
Method: as §2
Series [8] can be described thus: in vivo. The conditions noted are these: mouse, tumor, iv, 20 uCi per mouse, total radioactivity, after 5.5 hours, B16F10 tumor-bearing mouse.
Method: as §2
Series [9] deals with B16F10 cells. The experiment in a line: Binding and inhibition assay of B16F10 cells to 68Ga-AP1. The series is classed as cell-based, mice. The settings on record: 0.11 MBq/mL 68Ga-AP1 with AP1 0-360 μg/mL, 1 h. How it is done: • (1) When the cells grew to more than 90%, the cells were digested with 0.25% pancreatin, the cell concentration was adjusted to 1×10^5 cells/mL, the cells were plated in a 24-well plate, and 0.5 mL of culture medium was added to each well. […] 0.5 mL of 0.11 MBq/mL ^68Ga-AP1 was the source count T. • (5) The radioactivity of the liquid (^68Ga-AP1) detected and collected by the radioimmunotube of each concentration of AP1 was denoted as count B. • (6) The cellular uptake was B/T×100%, and the half inhibitory concentrations were fitted based on different concentrations of AP1. FIGS. 5A-5B show a competitive binding and inhibition experiment between ^68GaAP1 and AP1.

Turning to `[Cl][177Lu]([Cl])[Cl]` [^177LuCl3], the “cell survival rate after 24 hours” value in series [1] is given as 82.19±16.69%.
Take “{DOTA}-YGRKKRRQRRRCASTEEKWARLARRIAGAGGVTLDGFGGCA (cysteines drawn unpaired) [AP1]”: in series [2], the “biocompatibility of the polypeptide” value is recorded as “good biocompatibility”. Besides, in [3], the viability at 24 h, 100 µg/mL worked out at 94.7 ± 11% and the viability at 48 h, 100 µg/mL turned out to be 103 ± 5.76%.
On to “{DOTA}-YGRKKRRQRRRCASTEEKWARLARRIAGAGGVTLDGFGGCA-OH (N-terminus assumed; cysteines drawn unpaired) [^68Ga-AP1, metal not drawn]”, for which, in [4] (0-200 μCi/mL), the “biocompatibility of the PET/CT imaging probe” value is “good biocompatibility”. In addition, the cell survival rate in series [4] (radioactivity at most 200 μCi/mL) came out at 95.31±9.05%. The “stability of the labeled product” value in series [5] is “good stability”. Besides, the “route of metabolism (in vivo biodistribution)” value in series [6] was “mainly metabolized through liver and kidney”. In [7], the “half-discharge time in the blood” value stood at 2.1933 h and the “mean residence time (MRT) in vivo” value was 3.1643 h. The tissue uptake at 5.5 h in series [8] (tumor % ID/g in tumor high-intake group, high-intake group) turned out to be 18.9 ± 0.248 %ID/g. Further, the tissue uptake at 5.5 h in [8] (tumor % ID/g in tumor low-intake group, low-intake group) was found to be 5.24 ± 1.73 %ID/g. Further, in [9], the “uptake in B16F10 cells inhibited by AP1” value is on record as “can be specifically uptaken”.
